This note sets out measurements from PMC3526301.

The target in data set [1] is T1, human alpha-thrombin (Homo sapiens) (UniProt P00734+P00734). Put plainly: bead-based fluorescence binding. The settings on record: 50 mM Tris, 100 mM NaCl, 1 mM MgCl2, 5 mM KCl, 1 mM CaCl2, 0.01% Tween 20, pH 7.5 (selection buffer), 1 h room temperature ….
Data set [2] addresses T1, human alpha-thrombin (Homo sapiens). The data set can be described thus: fibrin formation inhibition (OD350). The following applies: 50 mM Tris, 100 mM NaCl, 1 mM MgCl2, 5 mM KCl, 1 mM CaCl2, 0.01% Tween 20, pH 7.5 (selection buffer), 1 h room temperature ….

The sequence “AGTCCGTGGTAGGGCAGGTTGGGGTGACT [Tasset-29]” had a fold affinity loss vs TBV-08 (fold lower affinity than TBV-08) in data set [1] of 200.

As usually defined, the Ki is the dissociation constant of the complex between target and ligand, obtained from inhibition or displacement. Lower therefore signals higher affinity. Regarding GGTTGGTGTGGTTGG [Bock-15], the Ki in data set [2] turned out to be 2.61 nM. This sequence registered a fold affinity loss vs TBV-08 (fold lower affinity than TBV-08) in data set [1] of 300.
